According to patent US5985608:

Biological target: endogenous β-actin of the bovine neutrophil plasma membrane (bovine) (UniProt P60712)
Test: control of the co-immunoprecipitation, protein A-agarose beads

- β-actin co-precipitated relative to the anti-pepA immunoprecipitate: < 5%
Substance: nonspecific rabbit IgG (polyclonal serum or antibody)
